According to patent US20060134736A1:

Molecular target: full-length human growth hormone receptor (stably transfected in BaF3 cells, cell line Baf-B03 B2B2) (human) (UniProt P10912)
Experiment: cell-based or functional assay

Chain of UniProt P10912 (P10912 19-638): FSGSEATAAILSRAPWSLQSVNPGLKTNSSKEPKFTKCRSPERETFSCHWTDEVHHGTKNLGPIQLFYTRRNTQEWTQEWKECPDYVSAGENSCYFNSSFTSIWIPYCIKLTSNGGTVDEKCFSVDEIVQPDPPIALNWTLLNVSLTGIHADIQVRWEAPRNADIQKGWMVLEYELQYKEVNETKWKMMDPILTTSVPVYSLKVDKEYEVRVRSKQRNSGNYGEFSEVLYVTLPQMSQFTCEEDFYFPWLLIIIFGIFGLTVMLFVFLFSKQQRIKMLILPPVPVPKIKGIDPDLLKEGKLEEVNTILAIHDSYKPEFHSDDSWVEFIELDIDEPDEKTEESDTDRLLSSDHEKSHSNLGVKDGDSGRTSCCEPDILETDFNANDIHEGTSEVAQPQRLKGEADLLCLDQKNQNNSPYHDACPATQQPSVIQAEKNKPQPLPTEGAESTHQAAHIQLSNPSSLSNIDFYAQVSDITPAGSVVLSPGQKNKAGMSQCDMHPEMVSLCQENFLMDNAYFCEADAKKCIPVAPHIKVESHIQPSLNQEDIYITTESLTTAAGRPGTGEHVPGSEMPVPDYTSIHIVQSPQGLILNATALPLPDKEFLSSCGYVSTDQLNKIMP

Substance | Specific Activity (IU/mg) in the Cell Proliferation Assay [IU/mg]
Di-PEG-hGH (two PEGs attached to one hGH molecule, Lot No BPM#04-004) (from UniProt P01241 27-217) (ligand) | 0.25
Mono-PEG-hGH (one PEG attached to one hGH molecule, Lot No BPM#04-003) (from UniProt P01241 27-217) (ligand) | 0.46
